Source: US20150353608A1
Ends that are not written are not given here.

B1: recombinant phage displaying polypeptide SEQ ID NO: 19 (peptide, T7 phage, not shown: large carriers)
chain: GAVYRRSFYDPRTGTWRSSIAYRGG
modifications: ends and bridges not checked
B2: recombinant phage displaying polypeptide SEQ ID NO: 35 (peptide, T7 phage, not shown: large carriers)
chain: DAAWHLGELVWATYYDPETGTWRPDWAVMATP
modifications: ends and bridges not checked
B3: polypeptide pep14 (peptide)
peptide: DAAWHLGELVWATYYDPETGTWQPDWLYMTTR
B4: polypeptide pep21 (peptide)
peptide: DAAWHLGELVWATYYDPETGTWLPDWQTMAQK
B5: recombinant phage displaying polypeptide SEQ ID NO: 26 (peptide, T7 phage, not shown: large carriers)
chain: DAAWHLGELVWATYYDPETGTWLPDWQTMAQK
modifications: ends and bridges not checked
B6: recombinant phage displaying polypeptide SEQ ID NO: 37 (peptide, T7 phage, not shown: large carriers)
chain: DAAWHLGELVWATYYDPETGTWLPDWDYMSSK
modifications: ends and bridges not checked
B7: recombinant phage displaying polypeptide SEQ ID NO: 39 (peptide, T7 phage, not shown: large carriers)
chain: DAAWHLGELVWATYYDPETGTWTPDWNAMSQR
modifications: ends and bridges not checked
B8: recombinant phage displaying polypeptide SEQ ID NO: 31 (peptide, T7 phage, not shown: large carriers)
chain: DAAWHLGELVWATYYDPETGTWQPDWDIMAGH
modifications: ends and bridges not checked
B9: recombinant phage displaying polypeptide SEQ ID NO: 9 (peptide, T7 phage, not shown: large carriers)
chain: YDPRTGTWRRSSLSYSG
modifications: ends and bridges not checked
B10: polypeptide RSS (peptide)
peptide: RSSIAYGGG
B11: recombinant phage displaying polypeptide SEQ ID NO: 72 (protein, T7 phage, not shown: large carriers)
chain: FVSSLPNSAMYDPETGTWYDAAWHLGELVWATYYDPETGTWEPDWQRMLGQ
modifications: ends and bridges not checked
B12: recombinant phage displaying polypeptide SEQ ID NO: 55 (peptide, T7 phage, not shown: large carriers)
chain: EAWHLGELVWATYYDPETGTWRPDWSRMSGR
modifications: ends and bridges not checked
B13: polypeptide pep11 (peptide)
peptide: DAAWHLGELVWATYYDPETGTWAPDWRLMQGQ
B14: recombinant phage displaying polypeptide SEQ ID NO: 30 (peptide, T7 phage, not shown: large carriers)
chain: DAAWHLGELVWATYYDPETGTWEPDWKLMQRP
modifications: ends and bridges not checked
B15: recombinant phage displaying polypeptide SEQ ID NO: 16 (peptide, T7 phage, not shown: large carriers)
chain: HWVNGRSGYDPRTGTWRSSIAYGGG
modifications: ends and bridges not checked
B16: recombinant phage displaying polypeptide SEQ ID NO: 64 (protein, T7 phage, not shown: large carriers)
chain: IPYGFPGRGEYDPETGTWYDAAWHLGELVWATYYDPETGTWEPDWQRMLGQ
modifications: ends and bridges not checked
B17: recombinant phage displaying polypeptide SEQ ID NO: 70 (protein, T7 phage, not shown: large carriers)
chain: WMEFYPGRGVYDPETGTWYDAAWHLGELVWATYYDPETGTWEPDWQRMLGQ
modifications: ends and bridges not checked
B18: recombinant phage displaying polypeptide SEQ ID NO: 68 (protein, T7 phage, not shown: large carriers)
chain: FLVGLHAGAVYDPETGTWYDAAWHLGELVWATYYDPETGTWEPDWQRMLGQ
modifications: ends and bridges not checked
B19: recombinant phage displaying polypeptide SEQ ID NO: 67 (protein, T7 phage, not shown: large carriers)
chain: VPPRFSSSAQYDPETGTWYDAAWHLGELVWATYYDPETGTWEPDWQRMLGQ
modifications: ends and bridges not checked
B20: recombinant phage displaying polypeptide SEQ ID NO: 79 (protein, T7 phage, not shown: large carriers)
chain: GSCKFSSSCHYDPETGTWYDAAWHLGELVWATYYDPETGTWEPDWQRMLGQ
modifications: ends and bridges not checked; also: displayed on T7 phage coat protein g10
B21: recombinant phage displaying polypeptide SEQ ID NO: 69 (protein, T7 phage, not shown: large carriers)
chain: VVRVDHSSAVYDPETGTWYDAAWHLGELVWATYYDPETGTWEPDWQRMLGQ
modifications: ends and bridges not checked
B22: polypeptide p17 (peptide)
peptide: GPGISAFSPGRGVYDPETGTWYDAAWHLGELVWATYYDPETGTWEPDWQRMLGQ
B23: variant polypeptide p17_W48A (peptide)
peptide: GPGISAFSPGRGVYDPETGTWYDAAWHLGELVWATYYDPETGTWEPDAQRMLGQ
B24: variant polypeptide p17_R50A (peptide)
peptide: GPGISAFSPGRGVYDPETGTWYDAAWHLGELVWATYYDPETGTWEPDWQAMLGQ
B25: variant polypeptide p17_M51A (peptide)
peptide: GPGISAFSPGRGVYDPETGTWYDAAWHLGELVWATYYDPETGTWEPDWQRALGQ
B26: recombinant phage displaying polypeptide SEQ ID NO: 57 (protein, T7 phage, not shown: large carriers)
chain: GPGISAFSPGRGVYDPETGTWYDAAWHLGELVWATYYDPETGTWEPDWQRMLGQ
modifications: ends and bridges not checked
B27: variant polypeptide p17_D47A (peptide)
peptide: GPGISAFSPGRGVYDPETGTWYDAAWHLGELVWATYYDPETGTWEPAWQRMLGQ
B28: variant polypeptide p17_P46A (peptide)
peptide: GPGISAFSPGRGVYDPETGTWYDAAWHLGELVWATYYDPETGTWEADWQRMLGQ
B29: recombinant phage displaying polypeptide SEQ ID NO: 3 (peptide, T7 phage, not shown: large carriers)
chain: YDPGTGTWRSYLRFGGG
modifications: ends and bridges not checked
B30: recombinant phage displaying polypeptide SEQ ID NO: 32 (peptide, T7 phage, not shown: large carriers)
chain: DAAWHLGELVWATYYDPETGTWLPDWDVMVRQ
modifications: ends and bridges not checked
B31: recombinant phage displaying polypeptide SEQ ID NO: 38 (peptide, T7 phage, not shown: large carriers)
chain: DAAWHLGELVWATYYDPETGTWMPDWDRMLRR
modifications: ends and bridges not checked
B32: recombinant phage displaying polypeptide SEQ ID NO: 12 (peptide, T7 phage, not shown: large carriers)
chain: AGSRRAHGYDPRTGTWRSSIAYGGG
modifications: ends and bridges not checked
B33: recombinant phage displaying polypeptide SEQ ID NO: 7 (peptide, T7 phage, not shown: large carriers)
chain: YDPRTGTWLLYASRLLG
modifications: ends and bridges not checked
B34: recombinant phage displaying polypeptide SEQ ID NO: 71 (protein, T7 phage, not shown: large carriers)
chain: DGVGPGSRGVYDPETGTWYDAAWHLGELVWATYYDPETGTWEPDWQRMLGQ
modifications: ends and bridges not checked
B35: recombinant phage displaying polypeptide SEQ ID NO: 33 (peptide, T7 phage, not shown: large carriers)
chain: DAAWHLGELVWATYYDPETGTWVPDWERMKQH
modifications: ends and bridges not checked
B36: recombinant phage displaying polypeptide SEQ ID NO: 36 (peptide, T7 phage, not shown: large carriers)
chain: DAAWHLGELVWATYYDPETGTWKPDWRMMGVP
modifications: ends and bridges not checked
B37: recombinant phage displaying polypeptide SEQ ID NO: 15 (peptide, T7 phage, not shown: large carriers)
chain: TGRGRSARYDPRTGTWRSSIAYGGG
modifications: ends and bridges not checked
B38: recombinant phage displaying polypeptide SEQ ID NO: 18 (peptide, T7 phage, not shown: large carriers)
chain: GSVVRWRGYDPRTGTWRSSIAYGGG
modifications: ends and bridges not checked
B39: recombinant phage displaying polypeptide SEQ ID NO: 6 (peptide, T7 phage, not shown: large carriers)
chain: YDPWTGTWRSFIWGGGG
modifications: ends and bridges not checked
B40: recombinant phage displaying polypeptide SEQ ID NO: 4 (peptide, T7 phage, not shown: large carriers)
chain: YDPYTGTWRSSIWVLSG
modifications: ends and bridges not checked
B41: recombinant phage displaying polypeptide SEQ ID NO: 80 (protein, T7 phage, not shown: large carriers)
chain: LIPPGGISPWYDPETGTWYDAAWHLGELVWATYYDPETGTWEPDWQRMLGQ
modifications: ends and bridges not checked
B42: recombinant phage displaying polypeptide SEQ ID NO: 65 (protein, T7 phage, not shown: large carriers)
chain: GPYNIPDSAVYDPETGTWYDAAWHLGELVWATYYDPETGTWEPDWQRMLGQ
modifications: ends and bridges not checked
B43: recombinant phage displaying polypeptide SEQ ID NO: 66 (protein, T7 phage, not shown: large carriers)
chain: WPLNAPSSAFYDPETGTWYDAAWHLGELVWATYYDPETGTWEPDWQRMLGQ
modifications: ends and bridges not checked
B44: recombinant phage displaying polypeptide SEQ ID NO: 34 (peptide, T7 phage, not shown: large carriers)
chain: DAAWHLGELVWATYYDPETGTWEPDWSKMRPQ
modifications: ends and bridges not checked
B45: polypeptide 2A1Gly (peptide)
peptide: GVVRQWSGGGGSGGGGRSSIAYGGG
B46: recombinant phage displaying polypeptide SEQ ID NO: 5 (peptide, T7 phage, not shown: large carriers)
chain: YDPGTGTWRSWLSFNVG
modifications: ends and bridges not checked
B47: recombinant phage displaying polypeptide SEQ ID NO: 63 (protein, T7 phage, not shown: large carriers)
chain: SNFVRSPSAWYDPETGTWYDAAWHLGELVWATYYDPETGTWEPDWQRMLGQ
modifications: not fully specified; ends and bridges not checked
B48: recombinant phage displaying polypeptide SEQ ID NO: 8 (peptide, T7 phage, not shown: large carriers)
chain: YDPVTGTWTSSIASWMG
modifications: ends and bridges not checked
B49: recombinant phage displaying polypeptide SEQ ID NO: 14 (peptide, T7 phage, not shown: large carriers)
chain: SWRRRGSSYDPRTGTWRSSIAYGGG
modifications: ends and bridges not checked

Tests used:
[1] = target: human Fc region manufactured by Jackson ImmunoResearch Laboratories, Inc. (human); test: phage ELISA, HRP-labelled Fc
[2] = target: Fc region prepared from human monoclonal IgG by papain digestion (human); test: SPR, Fc immobilized
[3] = target: human Fc region manufactured by Jackson ImmunoResearch Laboratories, Inc. (human); test: SPR, Fc immobilized, 25 C

Row | Binder | O.D. 415 [1] | other results
1 | B1 | 0.353 | –
2 | B2 | 0.32 | –
3 | B3 | – | Kd [2]: 120 nM
4 | B4 | – | Kd [2]: 100 nM
5 | B5 | 0.43 | –
6 | B6 | 0.235 | –
7 | B7 | 0.273 | –
8 | B8 | 0.295 | –
9 | B9 | 0.193 | –
10 | B10 | – | Kd [3]: 110000 nM
11 | B11 | 0.229 | –
12 | B12 | 0.252 | –
13 | B13 | – | Kd [2]: 510 nM
14 | B14 | 0.287 | –
15 | B15 | 0.373 | –
16 | B16 | 0.213 | –
17 | B17 | 0.189 | –
18 | B18 | 0.186 | –
19 | B19 | 0.25 | –
20 | B20 | 0.329 | –
21 | B21 | 0.201 | –
22 | B22 | – | Kd [2]: 1.6 nM
23 | B23 | – | Kd [2]: 200 nM; fold decrease of binding activity against p17 [2]: > 100 times
24 | B24 | – | Kd [2]: 7.8 nM
25 | B25 | – | Kd [2]: 180 nM; fold decrease of binding activity against p17 [2]: > 100 times

Row | Binder | O.D. 415 [1] | other results
26 | B26 | 0.229 | –
27 | B27 | – | Kd [2]: 45 nM
28 | B28 | – | Kd [2]: 5.6 nM
29 | B29 | 0.278 | –
30 | B30 | 0.352 | –
31 | B31 | 0.29 | –
32 | B32 | 0.267 | –
33 | B33 | 0.214 | –
34 | B34 | 0.219 | –
35 | B35 | 0.305 | –
36 | B36 | 0.287 | –
37 | B37 | 0.396 | –
38 | B38 | 0.36 | –
39 | B39 | 0.149 | –
40 | B40 | 0.165 | –
41 | B41 | 0.215 | –
42 | B42 | 0.291 | –
43 | B43 | 0.182 | –
44 | B44 | 0.281 | –
45 | B45 | – | Kd [3]: 23000 nM
46 | B46 | 0.155 | –
47 | B47 | 0.272 | –
48 | B48 | 0.223 | –
49 | B49 | 0.282 | –
